Here are results for two substances from patent publication US20070202501A1.

What all share (test): cell-based or functional assay
In test [1] the target is in-frame fusion between the extracellular domain of 2KIRDL3 (KIR2DL3) and the cytoplasmic ITIM motif of NKIR (pCXND3KIR58NKIR313), expressed in Jurkat cells (human) (UniProt P43628).
Test [2] concerns the target CD8-NKIR fusion protein (extracellular domain of CD8 alpha chain fused to the cytoplasmic ITIM motif of NKIR; pCXND3CD8NKIRfull), expressed in F11 Jurkat reporter cells (human) (UniProt P01732).
Test [3] has as its target CD8-KIR fusion protein (extracellular domain of CD8 alpha chain fused to the cytoplasmic ITIM motif of KIR; pCXND3CD8KIRfull), expressed in F11 Jurkat reporter cells (human) (UniProt P01732).

Sequence of UniProt P43628 (P43628 other isoform, or with tags, fused parts or gaps limits assumed): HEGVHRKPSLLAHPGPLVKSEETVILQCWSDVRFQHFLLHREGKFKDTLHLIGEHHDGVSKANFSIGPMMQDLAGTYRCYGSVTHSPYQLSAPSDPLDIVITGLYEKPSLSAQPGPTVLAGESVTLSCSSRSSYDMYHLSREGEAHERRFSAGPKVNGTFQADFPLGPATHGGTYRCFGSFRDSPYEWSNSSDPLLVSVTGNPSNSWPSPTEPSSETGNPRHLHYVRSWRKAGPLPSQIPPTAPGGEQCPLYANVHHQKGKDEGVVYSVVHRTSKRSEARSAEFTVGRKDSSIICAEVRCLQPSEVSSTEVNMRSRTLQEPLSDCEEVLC

“GL183 monoclonal antibody (Beckman Coulter)”: in test [1], the inhibition of luciferase activity (NFAT-luciferase reporter, anti-CD3 stimulated chimeraA10ZEOR12 cells, GL183 1 µg/ml then rat anti-mouse IgG cross-linking) stood at 33.3%.

Take “anti-CD8 antibody LT8 (Serotec, MCA1226XZ)”: in test [2], the degree of reduction of luciferase reporter activity (NFAT-luciferase, 10-hour ConA stimulation, LT8 1.5 µg/ml; clone NKIR#16) was 21.2% and the degree of reduction of luciferase reporter activity (NFAT-luciferase, 10-hour ConA stimulation, LT8 1.5 µg/ml; clone NKIR#19) was determined as 30.2%. The substance further came in with a degree of reduction of luciferase reporter activity (NFAT-luciferase, 10-hour ConA stimulation, LT8 1.5 µg/ml) in test [3] of 16.6%.
